Data on two molecules can be found in publication PMC8173005.

Assay [1] concerns the target staphylococcal protein A ligand of the BabyBio A column (Bio-Works) (staphylococcal (so in the source)). Briefly: affinity chromatography; dynamic binding capacity at 10% breakthrough; 1 mL columns of peptide-coupled agarose or BabyBio A; 1 mg/mL infliximab in 0.01% PBST pH 7.4 loaded at 0.5 mL/min; elution with 20 mM glycine-HCl pH 3.0 (peptide resins) or 100 mM Na-citrate pH 3.0 (BabyBio A).

The target of assay [2] is polyclonal human IgG (Octagam, Octapharma) (human). The experiment in a line: ELISA; phage ELISA; MaxiSorp wells coated with human polyclonal IgG (Octagam, 5 µg/mL), blocked with skimmed milk; peptide-displaying phagemid virions in solution, 2 × 10^9 virions per well or serial dilutions from 2.5 × 10^10 to 1.95 × 10^8 virions per well; detection with HRP-conjugated anti-M13 antibody and TMB; triplicate. (An ELISA detects its analyte on a solid surface through an enzyme-linked reagent.)

In assay [1], “infliximab (Remsima, Celltrion) (antibody)” gave an amount of infliximab in the eluate of 41.2 mg and a dynamic binding capacity at 10% breakthrough of 41.3 mg/mL.
As for GSYWYNVWF [peptide A displayed on pIT2-SL phagemid virions], the fold higher estimated affinity than the parent peptide min19Fc-Q6D in assay [2] was 16 fold.
